Eleven molecules from patent publication US4783441A, “Aqueous protein solutions stable to denaturation” (Hoechst Aktiengesellschaft, priority 1979, dated 1988) can be followed below.

Series [1] can be described thus: Adsorption of proteins on polystyrene beads at 5° C., protein concentration in filtrate, Example 3. To be noted: for protein concentration in solution, A: A = 3 ml of protein solution + 450 μl of buffer (no polystyrene), phosphate buffer pH 7; for protein concentration in solution (filtrate), B: B = after contact with treated polystyrene surfaces (block polymer PPG MW 2,250, 5% PEG each side; 20 ppm present); for protein concentration in solution (filtrate), B / protein concentration in solution (filtrate), C: shaken at 5° C., 0.2 μm filtered; for protein concentration in solution (filtrate), C: C = after contact with untreated polystyrene surfaces. It counts as physicochemical.
Method: 10 ml of an aqueous suspension of polystyrene beads (Dow-Latex®) having an average diameter of 0.481 μm were divided in two aliquots, one of which remained untreated while the other was shaken for 2 days at room temperature with 50 mg of a block polymer consisting of a linear polypropylene glycol chain with an average molecular weight of 2,250 (Dalton) on each side of which 5% of polyethylene glycol had been added by polymerization. The excess block polymer was then removed by dialysis against an aqueous solution containing 20 ppm of the same polymeric, surface-active substance.
Two times 3 ml portions of a solution of the proteins indicated in the following table in the given concentrations in phosphate buffer, pH 7, were prepared and each solution was shaken at 5° C. with 500 μl each of the untreated polystyrene suspension or the polystyrene suspension treated as described above, the latter still containing 20 ppm of the block polymer. Each sample was then filtered to clarity through a 0.2 μm filter.
A=3 ml of the respective protein solution+450 μl of buffer
B=after contact with treated polystyrene surfaces
C=after contact with untreated polystyrene surfaces.

A short description of series [2]: Adsorption of β-galactosidase on silicone oil emulsion, enzyme activity in aqueous phase, Example 2. It counts as physicochemical. Here is the method:
Ten samples of 10 ml each of a 0.01% solution of the enzyme β-galactosidase from E. coli in 0.01M phosphate buffer, pH 7, with 3×10^6 μU/ml were admixed stepwise with 10 to 100 mg of silicone oil AK 350 and the suspensions were shaken for 48 hours at 5° C. Emulsions were formed which could be separated into two phases by ultracentrifugation (40,000 g, 30 minutes, 4° C.). The enzyme activity in the aqueous phase was determined.

Series [3] can be described thus: Shaking test of peptide hormone solutions at 37° C., Example 5. To be noted: for appearance after a few days of shaking: 0.1% solution in 0.05M Tris/HCl buffer pH 7.5, shaken at 37° C., without stabilizer; for appearance of stabilized samples: 0.1% solution in 0.05M Tris/HCl pH 7.5, shaken at 37° C., with 10 ppm block polymer (PPG MW 2,000, 5% PEG each side).
Series [4] is described as follows: Shaking test of albumin solutions at 37° C. (turbidity from denatured protein), Example 1b. Conditions: 0.1% solution in 0.01M phosphate buffer pH 7, shaken at 37° C. It counts as physicochemical.
The nature of series [5]: Shaking test of protein solutions at 37° C. with analytical ultracentrifuge check, Example 6. Type of series: physicochemical. Here is the method: 0.1% solutions of egg albumin, human immunoglobulin-G and myoglobin of the whale, respectively, in 0.01M phosphate buffer, pH 7, and analogous solutions containing 0.1%, calculated on the weight of the solution, of the following compound [drawing 4] in which n and m are chosen to obtain a compound having an average total molecular weight of 12,500 Daltons with an ethylene oxide proportion of 40%, were freed from aggregates by ultracentifugation (for example 100,000 g/90 minutes). Ampules containing 10 ml each of the solutions were shaken at 37° C.

With Lysozyme, in series [1], the “protein concentration in solution, A” value was 1.0 mg/mL; the “protein concentration in solution (filtrate), B” value (shortened to “protein concentration … B”) is 0.95 mg/mL; the “protein concentration in solution (filtrate), C” value was determined as 0.25 mg/mL.
Turning to “β-galactosidase: enzyme β-galactosidase from E. coli”, the “enzyme adsorbed by silicone oil emulsion” value in series [2] (0.01% solution, 0.01M phosphate buffer pH 7, 10 to 100 mg silicone oil AK 350, shaken 48 hours at 5° C., without stabilizer) is “up to 70%”. Further, the “enzyme activity adsorbed on silicone oil” value in series [2] (same test in the presence of 100 ppm of compound drawing 2) is “no enzyme activity had been adsorbed”.
In the case of secretin: peptide hormone, in series [1], the “protein concentration in solution, A” value is 1.0 mg/mL; the “protein concentration … B” value amounted to 1.0 mg/mL; the “protein concentration in solution (filtrate), C” value was found to be 0.3 mg/mL. Besides, the “appearance after a few days of shaking” value in series [3] is “had become turbid”.
“adrenocorticotropic hormone: peptide hormone (SYSMEHFRWGKPVGKKRRPVKVYPNGAEDESAEAFPLEF; Corticotropin; UniProt P01189 138-176, looked up)”: in series [3], the “appearance after a few days of shaking” value is “had become turbid” and the “appearance of stabilized samples” value is listed as “remained clear even after several months”.
Turning to “bovine serum albumin: bovine serum albumin, 0.1% solution”, the “appearance of sample containing stabilizer” value in series [4] (with 10 ppm block polymer (polypropylene glycol MW 1,750, 5% polyethylene glycol on each side)) is given as “still limpid after several month”. The “time after which sample became strongly turbid (denatured protein)” value in series [4] (without stabilizer) was 7 days.
As to cholecystokinin, in series [3], the “appearance after a few days of shaking” value is on record as “had become turbid” and the “appearance of stabilized samples” value was “remained clear even after several months”.
As for Insulin, in series [1], the “protein concentration in solution, A” value was found to be 1.0 mg/mL; the “protein concentration … B” value is 1.0 mg/mL; the “protein concentration in solution (filtrate), C” value stood at 0.2 mg/mL.
Regarding calcitonin, in series [3], the “appearance after a few days of shaking” value is listed as “had become turbid” and the “appearance of stabilized samples” value was “remained clear even after several months”.
With “gastrin inhibiting polypeptide: peptide hormone”, the “appearance after a few days of shaking” value in series [3] is listed as “had become turbid”.
On the same count and under the same terms, for gastrin the value was “had become turbid”.

B1: Egg-albumin: egg albumin (protein, UniProt P01012 2-386, looked up)
Ovalbumin: GSIGAASMEFCFDVFKELKVHHANENIFYCPIAIMSALAMVYLGAKDSTRTQINKVVRFDKLPGFGDSIEAQCGTSVNVHSSLRDILNQITKPNDVYSFSLASRLYAEERYPILPEYLQCVKELYRGGLEPINFQTAADQARELINSWVESQTNGIIRNVLQPSSVDSQTAMVLVNAIVFKGLWEKAFKDEDTQAMPFRVTEQESKPVQMMYQIGLFRVASMASEKMKILELPFASGTMSMLVLLPDEVSGLEQLESIINFEKLTEWTSSNVMEERKIKVYLPRMKMEEKYNLTSVLMAMGITDVFSSSANLSGISSAESLKISQAVHAAHAEINEAGREVVGSAEAGVDAASVSEEFRADHPFLFCIKHIATNAVLFFGRCVSP
On to B1, for which, in series [1], the “protein concentration in solution, A” value is 0.5 mg/mL; the “protein concentration … B” value is 0.50 mg/mL; the “protein concentration in solution (filtrate), C” value was 0.22 mg/mL. In addition, the “appearance of samples without stabilizer” value in series [5] (0.1% solution in 0.01M phosphate buffer pH 7, freed from aggregates, shaken at 37° C., without stabilizer) was “became strongly turbid after a few hours”. Also, the “appearance of samples containing surface-active substance” value in series [5] (0.1% solution in 0.01M phosphate buffer pH 7, shaken at 37° C., with 0.1% of compound drawing 4 (MW 12,500, 40% ethylene oxide)) is on record as “remained limpid for several months”. In series [5] (samples with 0.1% of compound drawing 4 after shaking at 37° C.), the “new aggregates in analytical ultracentrifuge” value is “no new aggregate could be found”.
